Patent US20120064090A1, “THERAPEUTIC AGENT FOR CANCER HAVING REDUCED SENSITIVITY TO MOLECULAR TARGET DRUG AND PHARMACEUTICAL COMPOSITION FOR ENHANCING SENSITIVITY TO MOLECULAR TARGET DRUG” (KRINGLE PHARMA INC., priority 2009, published 2012)

Columns and labels:
[1] = tested on: tumor formed of PC-9 and MRC-5 cells; assay: Xenograft tumor (PC-9 + MRC-5) transplanted into SCID mice; type: in vivo; conditions: PC-9 + MRC-5 s.c., days 4 to 16, gefitinib 25 mg/kg/day oral, antibody 5 mg/kg/day i.p., NK4 9 mg/kg/day i.p., FIG. 6
Experimental: SCID mice (female, 5 weeks old) were purchased from CLEA Japan.
100 μL of a cell suspension containing PC-9 (5×10^6 cells) and MRC-5 (5×10^6 cells) was subcutaneously inoculated from the back skin of each SCID mouse. Four days later, mice bearing a tumor exceeding 4 mm in diameter were randomly divided into 6 groups (5 mice per group) as shown in Table 1.
In gefitinib-treated groups (groups 4, 5 and 6 in Table 1), gefitinib (25 mg/kg/day) was orally administered once daily in the morning for 13 days from 4 days to 16 days after cell inoculation. In gefitinib-non-treated groups (groups 1, 2 and 3 in Table 1), a water containing 1% Tween80 was orally administered once daily in a similar manner to the above. In anti-HGF neutralizing antibody-treated groups (groups 2 and 5 in Table 1), the anti-HGF neutralizing antibody (5 mg/kg/day) was intraperitoneally administered once daily immediately after gefitinib administration for 13 days from 4 days to 16 days after cell inoculation. In NK4-treated groups (groups 3 and 6 in Table 1), NK4 (9 mg/kg/day) was intraperitoneally administered in divided portions twice a day in the morning immediately after gefitinib administration and in the evening for 13 days from 4 days to 16 days after cell inoculation.
The width and length of tumor were measured every other day, and the tumor area (width×length) was calculated. […]

[2] = tested on: H1975; assay: Effects of anti-human HGF neutralizing antibody or NK4 on H1975 with HGF-induced CL-387,785-resistance; type: cell-based; conditions: CL-387,785 0.3 μM, HGF 50 ng/mL, antibody 2 μg/mL, NK4 0.3 μM, 72 hours, FIG. 10
Experimental: In the same manner as in the above (a), H1975 was seeded at 2×10^3 cells/well on 96-well plates. […] The degree of cell growth was measured by the MTT method and the growth rate was calculated in the same manner as in the above (a).

[3] = tested on: PC-9; assay: Effects of SU11274 on PC-9 with HGF-induced gefitinib-resistance; type: cell-based, human; conditions: HGF 20 ng/mL, gefitinib 0.3 μM, antibody 1 μg/mL, NK4 0.3 μM, SU11274 0.3 μM, 72 hours, FIG. 11
Experimental: PC-9 was seeded at 2×10^3 cells/well on 96-well plates and cultured for 24 hours. […] After that, 50 μL of an MTT solution (2 mg/mL, manufactured by Sigma) was added and incubation was performed at 37° C. for 2 hours. The culture media were removed, and dark blue crystals were dissolved by adding 100 μL of DMSO. The absorbance was measured with a microplate reader MTP-120 (Corona Electric Co., Ltd.) at the detection and reference wavelengths of 550 nm and 630 nm, respectively. The growth rate was shown as a relative value based on an untreated control. Each experiment was performed in triplicate and repeated thrice independently.

[4] = tested on: H1975; assay: Effects of SU11274 on H1975 with HGF-induced CL-387,785-resistance; type: cell-based, human; conditions: CL-387,785 0.3 μM, HGF 50 ng/mL, antibody 2 μg/mL, NK4 0.3 μM, 72 hours, FIG. 12
Experimental: H1975 was seeded at 2×10^3 cells/well on 96-well plates and cultured for 24 hours. […] The degree of cell growth was measured by the MTT method and the growth rate was calculated in the same manner as in the above (a).

B1: NK4 (protein, listed as Homo sapiens)
chain 1: MWVTKLLPALLLQHVLLHLLLLPIAIPYAEGQRKRRNTIHEFKKSAKTTLIKIDPALKIKTKKVNTADQCANRCTRNKGLPFTCKAFVFDKARKQCLWFPFNSMSSGVKKEFGHEFDLYENKDYIRNCIIGKGRSYKGTVSITKSGIKCQPWSSMIPHEHSFLPSSYRGKDLQENYCRNPRGEEGGPWCFTSNPEVRYEVCDIPQCSEVECMTCNGESYRGLMDHTESGKICQRWDHQTPHRHKFLPERYPDKGFDDNYCRNPDGQPRPWCYTLDPHTRWEYCAIKTCADNTMNDTDVPLETTECIQGQGEGYRGTVNTIWNGIPCQRWDSQYPHEHDMTPENFKCKDLRENYCRNPDGSESPWCFTTDPNIRVGYCSQIPNCDMSHGQDCYRGNGKNYMGNLSQTRSGLTCSMWDKNMEDLHRHIFWEPDASKLNENYCRNPDDDAHGPWCYTGNPLIPWDYCPISRCEGDTTPTIV
chain 2: MWVTKLLPALLLQHVLLHLLLLPIAIPYAEGQRKRRNTIHEFKKSAKTTLIKIDPALKIKTKKVNTADQCANRCTRNKGLPFTCKAFVFDKARKQCLWFPFNSMSSGVKKEFGHEFDLYENKDYIRNCIIGKGRSYKGTVSITKSGIKCQPWSSMIPHEHSYRGKDLQENYCRNPRGEEGGPWCFTSNPEVRYEVCDIPQCSEVECMTCNGESYRGLMDHTESGKICQRWDHQTPHRHKFLPERYPDKGFDDNYCRNPDGQPRPWCYTLDPHTRWEYCAIKTCADNTMNDTDVPLETTECIQGQGEGYRGTVNTIWNGIPCQRWDSQYPHEHDMTPENFKCKDLRENYCRNPDGSESPWCFTTDPNIRVGYCSQIPNCDMSHGQDCYRGNGKNYMGNLSQTRSGLTCSMWDKNMEDLHRHIFWEPDASKLNENYCRNPDDDAHGPWCYTGNPLIPWDYCPISRCEGDTTPTIV
notes: recombinant human NK4 protein; N-terminal hairpin domain and four kringle domains of HGF α chain, antagonist of HGF
Q: B1 was tested. Which “tumor volume / tumor growth over time” value [1] did it give?
A: tumor growth rate was slightly reduced

Q: What about the “inhibition of HGF-induced hyposensitivity of H1975 to CL-387,785” value [2] of the same molecule?
A: inhibited the HGF-induced hyposensitivity

Q: And the “inhibition of HGF-induced hyposensitivity of PC-9 to gefitinib” value [3]?
A: significantly inhibited

Q: What about the “inhibition of HGF-induced hyposensitivity of H1975 to CL-387,785” value [4] of the same molecule?
A: significantly inhibited
